Experiments:
bovine ubiquitin = target: T1, bovine ubiquitin (bovine, UniProt P0CG53 1-76); assay: ITC; ubiquitin or K48-Ub2 injected from the syringe into the Ddi1 construct in the sample cell; 50 mM HEPES, pH 7.4, 150 mM NaCl, 25 °C; VP-ITC; one-site model varying N, Kd and ΔH; full-length Ddi1 with ubiquitin also fitted to a two-sites model with N fixed to 1.0; conditions: both partners purified
T1 construct: ubiquitin, bovine (cut product of the ubiquitin precursors); source: bought: Sigma, cat. no; U6253

[1] = target: the molecule itself; assay: crystal structure; Ddi1 RVP 185-325, 1.8 Å; crystallized in 0.1 M phosphate-citrate, pH 4.2, 0.4 M NaCl, 20% PEG 8000; two chains in the asymmetric unit

B1: Ddi1 RVP-UBA (180-428) (domain or fragment, S. cerevisiae, UniProt P40087 180-428, looked up)
chain: QQAIDEQLRNAIEYTPEMFTQVPMLYINIEINNYPVKAFVDTGAQTTIMSTRLAKKTGLSRMIDKRFIGEARGVGTGKIIGRIHQAQVKIETQYIPCSFTVLDTDIDVLIGLDMLKRHLACVDLKENVLRIAEVETSFLSEAEIPKSFQEGLPAPTSVTTSSDKPLTPTKTSSTLPPQPGAVPALAPRTGMGPTPTGRSTAGATTATGRTFPEQTIKQLMDLGFPRDAVVKALKQTNGNAEFAASLLFQ
notes: Ddi1 of Saccharomyces cerevisiae, residues 180-428 (RVP to UBA, lacks the UBL), cloned into pET16b; Contains the RVP domain; also called RVP-UBA construct (without the UBL)
In the case of B1, the Kd (bovine ubiquitin) is reported as 43 µM.

B2: Ddi1 RVP (residues 185-325) (domain or fragment, S. cerevisiae, UniProt P40087 185-325, looked up)
chain: EQLRNAIEYTPEMFTQVPMLYINIEINNYPVKAFVDTGAQTTIMSTRLAKKTGLSRMIDKRFIGEARGVGTGKIIGRIHQAQVKIETQYIPCSFTVLDTDIDVLIGLDMLKRHLACVDLKENVLRIAEVETSFLSEAEIPK
notes: MALDI-TOF 16,320 Da (predicted 16,313 Da); also called RVP domain; Ddi1 retroviral protease-like domain; source: E. coli BL21(DE3), purified (glutathione-sepharose, 3C cleavage, gel filtration); not shown: GST, N-terminal, cleaved
With B2 the “stoichiometry N” value [1] was 2.

B3: Ddi1 UBL-RVP (1-325) (domain or fragment, S. cerevisiae, UniProt P40087 1-325, looked up)
chain: MDLTISNELTGEIYGPIEVSEDMALTDLIALLQADCGFDKTKHDLYYNMDILDSNRTQSLKELGLKTDDLLLIRGKISNSIQTDAATLSDEAFIEQFRQELLNNQMLRSQLILQIPGLNDLVNDPLLFRERLGPLILQRRYGGYNTAMNPFGIPQDEYTRLMANPDDPDNKKRIAELLDQQAIDEQLRNAIEYTPEMFTQVPMLYINIEINNYPVKAFVDTGAQTTIMSTRLAKKTGLSRMIDKRFIGEARGVGTGKIIGRIHQAQVKIETQYIPCSFTVLDTDIDVLIGLDMLKRHLACVDLKENVLRIAEVETSFLSEAEIPK
notes: Contains the RVP domain; also called UBL-RVP construct (without the UBA)
In the case of B3, the Kd (bovine ubiquitin) is reported as 310 µM.

B4: full-length yeast Ddi1 (natural protein, S. cerevisiae, UniProt P40087 1-428, looked up)
chain: MDLTISNELTGEIYGPIEVSEDMALTDLIALLQADCGFDKTKHDLYYNMDILDSNRTQSLKELGLKTDDLLLIRGKISNSIQTDAATLSDEAFIEQFRQELLNNQMLRSQLILQIPGLNDLVNDPLLFRERLGPLILQRRYGGYNTAMNPFGIPQDEYTRLMANPDDPDNKKRIAELLDQQAIDEQLRNAIEYTPEMFTQVPMLYINIEINNYPVKAFVDTGAQTTIMSTRLAKKTGLSRMIDKRFIGEARGVGTGKIIGRIHQAQVKIETQYIPCSFTVLDTDIDVLIGLDMLKRHLACVDLKENVLRIAEVETSFLSEAEIPKSFQEGLPAPTSVTTSSDKPLTPTKTSSTLPPQPGAVPALAPRTGMGPTPTGRSTAGATTATGRTFPEQTIKQLMDLGFPRDAVVKALKQTNGNAEFAASLLFQ
notes: Ddi1 of Saccharomyces cerevisiae, full length, cloned into pET16b; ITC concentration calculated to monomer; also called Ddi1 FL; DNA damage-inducible protein Ddi1
B4 showed a Kd (bovine ubiquitin) of 320 µM.
